Reference: the RNAGym collection of RNA variant scans (doi:10.7554/elife.80360)

B1: Twister Ribozyme (parent)
chain: AACACUGCCAAUGCCGGUCCCAAGCCCGGAUAAAAGUGGAGGGGGCGG

Variants of: B1
Experiment: self-cleavage, relative activity (ratio to wild type); higher = more cleavage; co-transcriptional

Variant	self-cleavage
A22C G38C	0.976
A22C G38U	0.782
A22C G38A	0.894
A23C G45C	0.125
C21U A40U	0.0831
C21U A40G	0.0774
C21U A40C	0.109
C21G U37G	0.083
C21G A30C	0.0405
C21G A30G	0.0493
C20U A40C	0.0976
A23C G36U	0.0946
A23C G36A	0.09
C20U C21A	0.115
C20U C21U	0.119
C20U C21G	0.0649
C20U G24C	0.0962
C20U G24U	0.0768
A22G C25U	0.131
A23G C25G	0.0343
A22U A35G	0.583
A23C A30G	0.385
C20U C25A	0.078
C21U A32G	0.0636

Variant	self-cleavage
C21G G38A	0.11
A22U U37A	0.256
A23C G41C	0.112
A23C G28U	0.161
C20G G43C	0.101
C20G G43U	0.0978
C21U G36U	0.0467
A22G G38C	0.0945
A23C G29U	0.124
A23C G29C	0.0814
A22G G36A	0.0781
A22G G36U	0.105
C21G G29A	0.0338
C21A U31G	0.119
C21A U31A	0.0618
C21A U31C	0.153
C21G G42C	0.13
C21G G42A	0.0891
C20U U37G	0.702
A22G G45U	0.143
A22G G45A	0.277
A22C A33C	0.955
A22C A33U	0.983
A22G G39C	0.0779

Variant	self-cleavage
A23C G44U	0.195
A23C G44A	0.478
A23C G44C	0.212
C21U C27G	0.0722
C20U G42C	0.654
A22C C25U	0.948
A22C C25G	0.222
A22C C25A	0.12
C21A C25U	0.0609
C21A C25G	0.0507
C21A C25A	0.101
A22C G36U	0.204
A23C A33C	0.0964
A23C A33U	0.13
A23C A33G	0.0917
A22G U31A	0.196
A22G U31C	0.304
A22U G41C	0.142
A22U G41A	0.102
C21U G38C	0.0755
C21U G38A	0.0657
C21G G39U	0.0469
A22U G36U	0.074
A22U A30G	0.783

Variant	self-cleavage
A22U A30U	0.999
A22C U31G	0.987
A22U G44U	0.812
A22U G44C	0.836
C21U A33G	0.146
A22G U37G	0.0844
A22G U37A	0.152
C21A A22G	0.101
C21A A22C	0.101
C21A G41U	0.678
C21A G41C	0.457
A22U G48C	0.954
A22U G48A	0.666
A22U G48U	0.911
C20U C46A	0.784
C20U C46G	0.815
C20U C46U	0.969
A23G C27U	0.14
A23G C27A	0.147
C21A A32C	0.169
C21A A32U	0.152
C21U G45U	0.118
C20U A34U	0.404
C20U A34G	0.373

Variant	self-cleavage
A23C G43A	0.117
A23C G39U	0.0921
C21G A40U	0.129
A22C G44A	0.914
C21U A34C	0.0844
C20U	1.01
A23C A35C	0.227
A23C A35G	0.0714
C21A A35U	0.104
A22U G29U	0.66
A22C G39U	0.111
A22C G39C	0.161
A23G A32G	0.402
A23G A32C	0.366
C20G U31A	0.103
C20G U31G	0.146
C20G U31C	0.0873
C21U G28U	0.102
A22G G44A	0.315
A22G G44U	0.243
A22G G44C	0.225
A22G G29U	0.183
C21U A22C	0.0923
C21U A22G	0.0633

Variant	self-cleavage
C20U A33U	0.778
C21U G24U	0.106
C21U G24C	0.0925
C21G A22C	0.0386
C21G A22G	0.135
C21G A22U	0.118
C20G G44U	0.0685
C20G G44A	0.18
C21G G24A	0.0681
C21G G24U	0.0976
C21G G24C	0.109
A22U C27U	0.692
A22U C27G	0.0668
A22C G45A	0.927
C21G G43U	0.0954
C21G G43A	0.0243
C20U C26A	0.138
C20U C26U	0.128
A23G A34U	0.15
A22C C26A	0.46
C21A G38A	0.109
C21A G38U	0.0847
C21A U37A	0.105
A23C U37G	0.0666

Variant	self-cleavage
A23C U37A	0.088
C21A G43U	0.0849
C21A G43A	0.0637
C21A G43C	0.0785
A23G C26G	0.107
A23G C26U	0.101
C21A A33G	0.0711
C21A A33U	0.102
C21A A33C	0.112
C21A A40G	0.0639
A22G G43A	0.0968
A22U A40U	0.128
C21G A34C	0.0532
A22G C26G	0.0488
A22G C26A	0.0908
A22G G41A	0.0888
A22G G41U	0.119
C20U G48C	1.04
A22G G24C	0.0998
C21U G43U	0.106
A23C C46A	0.164
A22G A35G	0.138
A22G A40C	0.11
